Source: patent publication US7067277B1, “Chimeric G proteins and uses thereof” (H. Lundbeck A/S, priority 1999, dated 2006)
Residue numbers refer to the chain shown, from its start.

T1: r GALR3 (Rattus norvegicus, UniProt O88626)
T1 sequence (O88626 1-370): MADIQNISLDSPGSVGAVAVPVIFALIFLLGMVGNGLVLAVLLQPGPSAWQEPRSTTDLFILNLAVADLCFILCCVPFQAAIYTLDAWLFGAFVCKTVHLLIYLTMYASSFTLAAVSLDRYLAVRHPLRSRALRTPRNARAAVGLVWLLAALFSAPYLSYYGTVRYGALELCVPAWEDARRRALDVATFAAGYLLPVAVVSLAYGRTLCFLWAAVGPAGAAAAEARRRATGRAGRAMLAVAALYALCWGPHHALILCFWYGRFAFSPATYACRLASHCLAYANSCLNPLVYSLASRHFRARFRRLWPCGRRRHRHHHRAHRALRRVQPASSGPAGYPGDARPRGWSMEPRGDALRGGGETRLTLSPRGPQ

B1: cGαq/s9: C. elegans Gαq backbone with 9 C-terminal amino acids of Gαs (SEQ ID NO: 3) (protein)
chain: MACCLSEEAREQKRINQEIEKQLQRDKRNARRELKLLLLGTGESGKSTFIKQMRIIHGQGYSEEDKRAHIRLVYQNVFMAIQSMIRAMDTLDIKFGNESEELQEKAAVVREVDFESVTSFEEPYVSYIKELWEDSGIQECYDRRREYQLTDSAKYYLSDLRRLAVPDYLPTEQDILRVRVPTTGIIEYPFDLEQIIFRMVDVGGQRSERRKWIHCFENVTSIMFLVALSEYDQVLVECDNENRMEESKALFRTIITYPWFTNSSVILFLNKKDLLEEKILYSHLADYFPEYDGPPRDPIAAREFILKMFVDLNPDADKIIYSHFTCATDTENIRFVFAAVKDTILQMHLRQYELL
modifications: C. elegans
B2: cGαq/s21: C. elegans Gαq with C-terminal Gαs tail of 21 amino acids (SEQ ID NO: 4) (protein)
chain: B1 chain with F335R, A338N, A339D, V340C, K341R, T343I, L345Q, Q346R
modifications: C. elegans
B3: hGαq/s9: human Gαq with 9 C-terminal amino acids of Gαs (protein)
chain: MTLESIMACCLSEEAKEARRINDEIERQLRRDKRDARRELKLLLLGTGESGKSTFIKQMRIIHGSGYSDEDKRGFTKLVYQNIFTAMQAMIRAMDTLKIPYKYEHNKAHAQLVREVDVEKVSAFENPYVDAIKSLWNDPGIQECYDRRREYQLSDSTKYYLNDLDRVADPSYLPTQQDVLRVRVPTTGIIEYPFDLQSVIFRMVDVGGQRSERRKWIHCFENVTSIMFLVALSEYDQVLVESDNENRMEESKALFRTIITYPWFQNSSVILFLNKKDLLEEKIMYSHLVDYFPEYDGPQRDAQAAREFILKMFVDLNPDSDKIIYSHFTCATDTENIRFVFAAVKDTILQMHLRQYELL
B4: hGαq/s5: human Gαq with 5 C-terminal amino acids of Gαs (protein)
chain: B3 chain with M351L, H352N, R354K
B5: C. elegans Gαq/i3(5): C. elegans Gαq with five C-terminal amino acids of Gαi3 (SEQ ID NO: 5) (protein)
chain: B1 chain with M347H, H348N, R350K, Q351E, Y352C, E353G, L355Y
modifications: C. elegans
B6: human Gαq/i3(5): human Gαq with five C-terminal amino acids of Gαi3 (protein)
chain: B3 chain with M351L, H352N, R354K, Q355E, Y356C, E357G, L359Y

What follows are molecules tested against T2, h D1 (Homo sapiens, UniProt P21728) (assay: Calcium mobilization (FLIPR, Fluo-3) in transfected COS-7 cells). Conditions: h D1 + chimera in COS-7; agonist DA, max 100 μM.
T2 construct: expressed in transfected cells; host or cells: COS-7
Type: cell-based
Experimental: (§1) COS-7 cells were cultured in 225 cm^2 flasks in Dulbecco's Modified Eagle Medium (DMEM) with supplements (10% bovine calf serum, 4 mM glutamine, 100 units/ml penicillin and 100 μg/ml streptomycin) at 37° C., 5% CO2. Stock plates of COS-7 cells were trypsinized and split 1:6 every 3–4 days.
For evaluating the function of a single chimeric G protein, the standard cDNA transfection ratio was 1:1 (10 μg GPCR cDNA and 10 μg chimeric G protein cDNA). For evaluating the function of a mixture of chimeric G proteins, the standard cDNA transfection ratio was 8:1:1 (16 μg GPCR cDNA, 2 μg Gαq/z cDNA, 2 μg Gαq/s cDNA).
Twenty four hours after transient transfection, COS-7 cells were seeded into 96-well black wall microtiter plates coated with poly-D-lysine for assay the following day. […] After excess dye was discarded, cells were washed in assay buffer and layered with a final volume equal to 100 μl/well. Basal fluorescence was monitored in a fluorometric imaging plate reader (FLIPR™, Molecular Devices) with an excitation wavelength of 488 nm and an emission range of 500 to 560 nm. Laser excitation energy was adjusted so that basal fluorescence readings were approximately 10,000 relative fluorescent units. Cells were stimulated with agonists diluted in assay buffer (50 μl), and relative fluorescent units were measured at defined intervals (exposure=0.4 sec) over a 3 min period at room temperature. Maximum change in fluorescence was calculated for each well. Concentration-response curves derived from the maximum change in fluorescence were analyzed by nonlinear regression (Hill equation).

T2 sequence (P21728 whole entry): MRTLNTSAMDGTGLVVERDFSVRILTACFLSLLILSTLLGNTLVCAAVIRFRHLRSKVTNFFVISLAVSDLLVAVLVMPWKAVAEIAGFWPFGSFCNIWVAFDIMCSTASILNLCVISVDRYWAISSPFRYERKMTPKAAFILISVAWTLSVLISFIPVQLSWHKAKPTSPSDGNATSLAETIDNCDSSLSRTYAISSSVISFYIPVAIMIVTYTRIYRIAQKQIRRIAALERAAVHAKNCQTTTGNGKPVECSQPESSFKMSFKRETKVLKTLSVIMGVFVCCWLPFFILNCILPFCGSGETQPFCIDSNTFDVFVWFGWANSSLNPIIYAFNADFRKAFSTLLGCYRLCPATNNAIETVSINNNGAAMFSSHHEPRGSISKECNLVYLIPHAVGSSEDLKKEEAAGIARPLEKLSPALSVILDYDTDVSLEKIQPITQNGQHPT

Going from B1 to B2, the “MAXIMAL SIGNAL (FLUORESCENCE UNITS)” value rises from 8692 fluorescence units to 9433 fluorescence units.

In the case of B3, the “MAXIMAL SIGNAL (FLUORESCENCE UNITS)” value is reported as 5692 fluorescence units.

The molecules below were run on panel of 7 Gαs-coupling receptors (assay: Detection rate in COS-7 calcium mobilization over Gαs-coupling GPCR). Conditions: COS-7, stimulated with appropriate agonists.
Type: cell-based, human
Experimental: as §1
GPCR and chimeric G protein cDNAs were transiently transfected into COS-7 cells in 150 cm^2 flasks by the DEAE-dextran method (Cullen, 1987), using a total of 20 μg of DNA/˜7×10^6 cells. For evaluating the function of a single chimeric G protein, the standard cDNA transfection ratio was 1:1 (10 μg GPCR cDNA and 10 μg chimeric G protein cDNA). […]
Twenty four hours after transient transfection, COS-7 cells were seeded into 96-well black wall microtiter plates coated with poly-D-lysine for assay the following day. […] Basal fluorescence was monitored in a fluorometric imaging plate reader (FLIPR™, Molecular Devices) with an excitation wavelength of 488 nm and an emission range of 500 to 560 nm. Laser excitation energy was adjusted so that basal fluorescence readings were approximately 10,000 relative fluorescent units. Cells were stimulated with agonists diluted in assay buffer (50 μl), and relative fluorescent units were measured at defined intervals (exposure=0.4 sec) over a 3 min period at room temperature. Maximum change in fluorescence was calculated for each well. […]

B1 was tested, and the “Gαs-coupling receptors generating positive responses (>500 fluorescence units) / receptors tested” value was 6/7.

In the case of B1, the “percent of Gαs-coupling receptors generating positive responses (>500 fluorescence units)” value is reported as 81%.

What follows are molecules tested against h D5 (Homo sapiens, UniProt P21918) (assay: Calcium mobilization (FLIPR, Fluo-3) in transfected COS-7 cells). Conditions: h D5 + chimera in COS-7; agonist DA, max 100 μM.
Type: cell-based
Experimental: as §1
(§2) GPCR and chimeric G protein cDNAs were transiently transfected into COS-7 cells in 150 cm^2 flasks by the DEAE-dextran method (Cullen, 1987), using a total of 20 μg of DNA/˜7×10^6 cells. For evaluating the function of a single chimeric G protein, the standard cDNA transfection ratio was 1:1 (10 μg GPCR cDNA and 10 μg chimeric G protein cDNA). For evaluating the function of a mixture of chimeric G proteins, the standard cDNA transfection ratio was 8:1:1 (16 μg GPCR cDNA, 2 μg Gαq/z cDNA, 2 μg Gαq/s cDNA).
(§3) Twenty four hours after transient transfection, COS-7 cells were seeded into 96-well black wall microtiter plates coated with poly-D-lysine for assay the following day. Just prior to assay, culture medium was aspirated and cells were dye-loaded with 4 μM Fluo-3/0.01% pluronic acid in assay buffer composed of Hank's Balanced Salt Solution (138 mM NaCl, 5 mM KCl, 1.3 mM CaCl2, 0.5 mM MgCl2, 0.4 mM MgSO4, 0.3 mM KH2PO4, 0.3 mM Na2HPO4, 5.6 mM glucose) plus 20 mM HEPES (pH 7.4), 0.1% BSA and 2.5 mM probenicid (100 μl/well) for 1 hour in 5% CO2 at 37° C. After excess dye was discarded, cells were washed in assay buffer and layered with a final volume equal to 100 μl/well. Basal fluorescence was monitored in a fluorometric imaging plate reader (FLIPR™, Molecular Devices) with an excitation wavelength of 488 nm and an emission range of 500 to 560 nm. Laser excitation energy was adjusted so that basal fluorescence readings were approximately 10,000 relative fluorescent units. Cells were stimulated with agonists diluted in assay buffer (50 μl), and relative fluorescent units were measured at defined intervals (exposure=0.4 sec) over a 3 min period at room temperature. Maximum change in fluorescence was calculated for each well. Concentration-response curves derived from the maximum change in fluorescence were analyzed by nonlinear regression (Hill equation).

h D5, sequence (P21918 whole entry): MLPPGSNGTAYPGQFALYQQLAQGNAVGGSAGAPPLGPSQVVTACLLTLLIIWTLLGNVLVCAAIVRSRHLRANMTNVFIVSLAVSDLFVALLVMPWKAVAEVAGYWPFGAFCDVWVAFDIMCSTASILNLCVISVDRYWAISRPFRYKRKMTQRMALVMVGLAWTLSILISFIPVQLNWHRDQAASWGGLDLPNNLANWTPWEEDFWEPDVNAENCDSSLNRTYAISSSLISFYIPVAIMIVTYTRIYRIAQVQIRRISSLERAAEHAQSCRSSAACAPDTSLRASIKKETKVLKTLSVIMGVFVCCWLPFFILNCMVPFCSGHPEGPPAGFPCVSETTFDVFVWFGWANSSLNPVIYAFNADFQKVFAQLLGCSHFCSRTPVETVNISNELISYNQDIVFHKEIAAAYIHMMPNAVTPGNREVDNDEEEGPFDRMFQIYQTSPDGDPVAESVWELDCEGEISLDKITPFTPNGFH

Compared with B1, B2 is higher in “MAXIMAL SIGNAL (FLUORESCENCE UNITS)” value: 1870 fluorescence units for the first, 3385 fluorescence units for the second.

Compared with B3, B4 is lower in “MAXIMAL SIGNAL (FLUORESCENCE UNITS)” value: 745 fluorescence units for the first, 0 fluorescence units for the second.

The molecules below were run against T1, r GALR3 in the same assay as above. Conditions: COS-7 cells transfected with the rat GALR3 receptor; n=4.
Type: cell-based
Experimental: as §1, §2, §3

B5 was tested, and the “maximum signal produced by porcine galanin” value was 2564 relative fluorescent units.
In the case of B6, the “maximum signal produced by porcine galanin” value is reported as 2084 relative fluorescent units.

The molecules below were run against h GLP-1 (Homo sapiens, UniProt P43220) in the same assay as above. Conditions: h GLP-1 + chimera in COS-7; agonist GLP-1, max 10 μM.
Type: cell-based
Experimental: as §1, §2, §3

h GLP-1, sequence (P43220 24-463): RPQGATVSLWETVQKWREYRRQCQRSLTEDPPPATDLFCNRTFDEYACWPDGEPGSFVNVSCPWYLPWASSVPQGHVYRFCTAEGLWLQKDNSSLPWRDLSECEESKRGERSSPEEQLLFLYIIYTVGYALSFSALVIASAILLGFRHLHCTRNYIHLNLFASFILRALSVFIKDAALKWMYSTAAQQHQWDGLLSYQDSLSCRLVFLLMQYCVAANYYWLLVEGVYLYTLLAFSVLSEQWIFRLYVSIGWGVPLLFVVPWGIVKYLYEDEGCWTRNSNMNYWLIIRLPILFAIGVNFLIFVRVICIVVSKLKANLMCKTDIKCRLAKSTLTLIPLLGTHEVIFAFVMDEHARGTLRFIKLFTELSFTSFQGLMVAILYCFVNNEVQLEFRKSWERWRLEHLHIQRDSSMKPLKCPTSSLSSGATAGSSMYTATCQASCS

First: B1
Second: B2
The “MAXIMAL SIGNAL (FLUORESCENCE UNITS)” value of the first is lower: 2461 fluorescence units for the first, 3120 fluorescence units for the second.

First: B3
Second: B4
The “MAXIMAL SIGNAL (FLUORESCENCE UNITS)” value of the first is higher: 4198 fluorescence units for the first, 189 fluorescence units for the second.

What follows are molecules tested against h β2 adr (Homo sapiens, UniProt P07550) in the same assay as above. Conditions: h β2 adr + chimera in COS-7; agonist NE, max 100 μM.
Type: cell-based
Experimental: as §1, §2, §3

First: B1
Second: B2
The “MAXIMAL SIGNAL (FLUORESCENCE UNITS)” value of the first is lower: 3106 fluorescence units for the first, 3513 fluorescence units for the second.

Going from B3 to B4, the “MAXIMAL SIGNAL (FLUORESCENCE UNITS)” value falls from 1439 fluorescence units to 43 fluorescence units.

Each molecule was assayed against h 5HT4 (Homo sapiens, UniProt Q13639) in the same assay as above. Conditions: h 5HT4 + chimera in COS-7; agonist 5HT, max 100 μM.
Type: cell-based
Experimental: as §1, §2, §3

h 5HT4, sequence (Q13639 whole entry): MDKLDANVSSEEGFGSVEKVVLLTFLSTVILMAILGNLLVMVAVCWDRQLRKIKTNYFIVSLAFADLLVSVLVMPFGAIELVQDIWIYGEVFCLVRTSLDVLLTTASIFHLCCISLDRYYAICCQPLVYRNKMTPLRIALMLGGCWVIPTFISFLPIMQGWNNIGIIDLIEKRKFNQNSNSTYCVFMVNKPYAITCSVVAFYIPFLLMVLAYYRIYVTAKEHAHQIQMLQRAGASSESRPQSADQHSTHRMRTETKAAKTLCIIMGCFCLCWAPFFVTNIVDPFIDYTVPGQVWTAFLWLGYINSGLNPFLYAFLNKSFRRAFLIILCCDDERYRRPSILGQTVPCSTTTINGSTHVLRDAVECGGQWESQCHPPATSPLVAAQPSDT

Compared with B1, B2 is higher in “MAXIMAL SIGNAL (FLUORESCENCE UNITS)” value: 1701 fluorescence units for the first, 1731 fluorescence units for the second.

Going from B3 to B4, the “MAXIMAL SIGNAL (FLUORESCENCE UNITS)” value falls from 2309 fluorescence units to 1709 fluorescence units.

What follows are molecules tested against h 5HT6 (Homo sapiens, UniProt P50406) in the same assay as above. Conditions: h 5HT6 + chimera in COS-7; agonist 5HT, max 100 μM.
Type: cell-based
Experimental: as §1, §2, §3

h 5HT6, sequence (P50406 whole entry): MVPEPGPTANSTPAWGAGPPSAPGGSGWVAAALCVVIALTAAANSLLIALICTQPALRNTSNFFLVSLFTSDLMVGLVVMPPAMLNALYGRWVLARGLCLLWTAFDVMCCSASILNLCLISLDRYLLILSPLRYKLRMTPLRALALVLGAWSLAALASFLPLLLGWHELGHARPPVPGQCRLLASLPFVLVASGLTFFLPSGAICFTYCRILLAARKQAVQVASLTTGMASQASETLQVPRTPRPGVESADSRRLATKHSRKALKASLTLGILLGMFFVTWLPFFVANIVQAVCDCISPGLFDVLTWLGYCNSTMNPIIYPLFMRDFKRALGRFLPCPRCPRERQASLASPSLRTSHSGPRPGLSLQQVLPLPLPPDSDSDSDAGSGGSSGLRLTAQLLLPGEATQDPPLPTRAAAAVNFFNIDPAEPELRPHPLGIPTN

Going from B1 to B2, the “MAXIMAL SIGNAL (FLUORESCENCE UNITS)” value falls from 1639 fluorescence units to 1009 fluorescence units.

Compared with B3, B4 is lower in “MAXIMAL SIGNAL (FLUORESCENCE UNITS)” value: 999 fluorescence units for the first, 98 fluorescence units for the second.

The molecules below were run against h 5HT7 (Homo sapiens, UniProt P34969) in the same assay as above. Conditions: h 5HT7 + chimera in COS-7; agonist 5HT, max 100 μM.
Type: cell-based
Experimental: as §1, §2, §3

h 5HT7, sequence (P34969 whole entry): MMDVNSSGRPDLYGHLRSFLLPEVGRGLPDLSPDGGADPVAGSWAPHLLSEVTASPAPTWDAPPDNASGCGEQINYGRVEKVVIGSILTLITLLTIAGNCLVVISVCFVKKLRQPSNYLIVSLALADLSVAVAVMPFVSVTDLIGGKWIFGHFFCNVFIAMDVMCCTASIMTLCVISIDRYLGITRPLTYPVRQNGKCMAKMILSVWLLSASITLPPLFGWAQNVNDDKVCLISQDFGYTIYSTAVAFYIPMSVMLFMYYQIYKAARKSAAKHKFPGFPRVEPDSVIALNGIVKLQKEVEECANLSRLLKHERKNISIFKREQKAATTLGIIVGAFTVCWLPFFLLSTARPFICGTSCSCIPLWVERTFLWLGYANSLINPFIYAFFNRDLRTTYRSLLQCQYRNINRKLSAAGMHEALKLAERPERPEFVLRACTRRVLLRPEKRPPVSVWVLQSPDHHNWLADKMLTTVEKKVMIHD

Going from B1 to B2, the “MAXIMAL SIGNAL (FLUORESCENCE UNITS)” value falls from 387 fluorescence units to 206 fluorescence units.

B3 and B4 are the same in “MAXIMAL SIGNAL (FLUORESCENCE UNITS)” value: 0 fluorescence units for the first, 0 fluorescence units for the second.
